Measured values taken from EP4814009A1 (Medpacto Inc., dated 2026).

Biological target: T1, biotinylated TGF-β1 (R&D Systems, Catalog #NFTG0) (UniProt P01137 279-390, biotinylated (sites not given))
T1 construct: Detection reagent of the sandwich ELISA, 1:50 diluted in PBS
Test: sandwich ELISA, simultaneous binding of EDB-FN-6x His (coated) and biotinylated TGF-β1

T1 sequence (P01137 279-390 limits assumed): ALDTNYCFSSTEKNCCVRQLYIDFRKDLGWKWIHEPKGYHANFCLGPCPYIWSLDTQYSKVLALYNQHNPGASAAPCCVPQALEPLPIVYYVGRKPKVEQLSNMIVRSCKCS

B1: Anti-EDB-FN scFv-TGFβ Trap (other)
chain: EVQLLESGGGLVQPGGSLRLSCAASGFTFSSFSMSWVRQAPGKGLEWVSSISGSSGTTYYADSVKGRFTISRDNSKNTLYLQMNSLRAEDTAVYYCAKPFPYFDYWGQGTLVTVSSGGGGSGGGGSGGGGSEIVLTQSPGTLSLSPGERATLSCRASQSVSSSFLAWYQQKPGQAPRLLIYYASSRATGIPDRFSGSGSGTDFTLTISRLEPEDFAVYYCQQTGRIPPTFGQGTKVEIKSSSSGSSSSGSSSSGIPPHVQKSVNNDMIVTDNNGAVKFPQLCKFCDVRFSTCDNQKSCMSNCSITSICEKPQEVCVAVWRKNDENITLETVCHDPKLPYHDFILEDAASPKCIMKEKKKPGETFFMCSCSSDECNDNIIFSEEYNTSNPD
notes: L19 scFv fused onto the TGFβ Trap without Fc; also called Anti-EDB-FN scFv-TGFβ Trap without Fc fusion
B1: binds.
